The data set deals with NS3h (NS3 helicase domain) (Dengue virus serotype 2 (cDNA of …, UniProt O09234 1646-2093)). The data set can be described thus: fluorescence intensity titration (ex 495 nm, em 525-570 nm), 1:1 single-site fit; 1.5 mM free Mg2+; no ATP stated; constant printed as 'K' in nM, subscript lost, read as Kd. To be noted: protein: recombinant; tags: N-terminal His6 (pET-28a); label: 5'-fluorescein.

As usually defined, the Kd is a measure of binding affinity in units of concentration.

As for AGUUGAGUUG (ssRNA) [fluorescein-labeled 10-nt ssRNA], the Kd turned out to be 0.75 ± 0.08 nM.

(Values after PMC3602377, “Steady-State NTPase Activity of Dengue Virus NS3: Number of Catalytic Sites, Nucleotide Specificity and Activation by ssRNA”.)
